From patent US20050209548A1, “Electroporation-mediated intravascular delivery” (priority 2004, published 2005)

Columns and labels:
[1] = rabbit, in vivo
Procedure: This catheter was used in the following experiment. Three rabbits weighing 4 Kg were anesthetized with xylazine (0.1 ml/kg) and ketamine (0.5 ml/1 g i.m.). General anesthesia was maintained with α-chloralose (30 mg/Kg. i.v.). […] A femoral artery in the leg on one side of the rabbit was exposed. A 5F sheath was introduced and the catheter was pushed under fluoroscopic guidance to the right or left carotid artery. […] Radiocontrast fluid was infused (panel b) allowing confirmation of the catheter position, the patient artery, the balloon and the built-in radiopaque marker, as well as presence of the dye in the side branches. After balloon inflation, (panel c) 1 ml of fluoresceinated heparin (concentration 1 mg dissolved in 2 ml: biological activity of heparin as per manufacturer: 167 U) was infused between the occluded segment via the drug port and the artery pulsed immediately with the balloons in the inflated condition. Initially, field parameters tested were ˜60V and four pulses each of ˜600 μs pulse length. […] In a subsequent experiment, voltage and pulse length were changed to 57V and 22 ms, respectively. As before, four pulses were delivered from ECM 600 pulse exponential generator. […] In addition, fluorescence due to collagen and elastin was also present.

[2] = Molecular Probe, Inc.; cited from earlier work
[3] = rabbit, in vivo; remark: listed apart in the source
Procedure: Experiments were performed in 12 New Zealand white rabbits of either sex (2.5-3.4 kg) preanesthetized with xylazine (2 mg.kg^−1) and ketamine (50 mg.kg^−1) intramuscularly and an injection of alphachloralose (30 mg.kg^−1) intraveneously through an ear vein. A supplemental dose of 10 mg.kg^−1 chloralose was given every hour. The anesthetic state was maintained such that the toe-pinching reflex and corneal reflexes were absent.
Animals were placed supine and strapped on the surgical table. The trachea was intubated to allow spontaneous breathing of ambient air. Electrocardiogram (EKG) of the animal was obtained by using Lead II in differential mode. End-tidal CO2 tension was monitored by a CO2 analyzer (Datex, Puritan-Bennett). Body temperature was kept at the 38-38.5 °C range by radiant heating.
A longitudinal incision in the cervical region was made in the rabbit to expose the common carotid arteries on both sides. Approximately 6 cm in length of carotid artery on each side was isolated from the surrounding tissue and vagosympathetic nerve trunk. The caudal end of the carotid artery on one side was transiently occluded with a vascular clip at the junction between the neck and chest. A small incision was then made at the rostral end of the artery (just below transversus vein) to push an electroporator catheter (FIG. 1) through this incision. […]
Lead II EKG Nvas differentially amplified and the output was continuously monitored on an osciloscope (Tektronix) and recorded on a Gould TA-2000 thermal-array recorder for evaluation. […]
Arterial segments were subsequently freeze sectioned (10 micron) transversely. Microscopic slides containing arterial sections were observed under a Zeiss confocal laser (argon-krypton) scan microscope (LSM 410 Invert), (excitation at 495 nm and emission at 515 nm) to obtain video image (magnification 40 times) of fluorescence. Subsequently, control and test samples were compared by analyzing fluorescence intensity by Line Intensity Scan at different depths of the arterial wall using commercially obtained software (Image 1: Universal Imaging Corp.). […]

[4] = pig, in vivo; cited from earlier work

In the case of fluoresceinated heparin [F-heparin], the “penetration and uptake after autofluorescence correction and subtraction of control artery fluorescence” value [1] is listed as “deep penetration and uptake” and the activity [2] is listed as 167 unit/mg.

For heparin, the “duration of sustained delivery in vessel” value [3] was “at least 12 hours”, the “location in the vessel wall” value [3] was “mostly present in the media but also in the intima” and the “washout of local delivery from vessel” value [3] was “completely washes out in two hours”.

For hirudin, the “drug washed out of the vessel” value [4] is listed as 80% and the “level in vessel compared with passive delivery” value [4] is listed as “the level is the same as for the passive delivery”.
